Residue numbers refer to the chain shown, from its start.
Assays:
human Nectin-2 antigen = molecular target: T1, human Nectin-2 antigen (human, UniProt Q92692 32-360, limits assumed); assay: ELISA, coated human Nectin-2, anti-human-HRP
T1 sequence (looked up): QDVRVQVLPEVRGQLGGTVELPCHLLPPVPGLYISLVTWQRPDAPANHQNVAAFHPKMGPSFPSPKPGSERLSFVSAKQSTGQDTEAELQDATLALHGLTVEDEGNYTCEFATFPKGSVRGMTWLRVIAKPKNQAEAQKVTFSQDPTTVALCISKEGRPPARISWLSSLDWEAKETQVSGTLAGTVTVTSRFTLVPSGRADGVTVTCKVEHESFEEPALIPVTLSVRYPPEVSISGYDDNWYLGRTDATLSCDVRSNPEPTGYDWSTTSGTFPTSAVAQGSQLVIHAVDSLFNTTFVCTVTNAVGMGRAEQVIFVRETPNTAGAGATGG
Method: The Nectin family includes members of Nectin-1, Nectin-2, Nectin-3 and Nectin-4, and the members share a sequence identity of about 25%, but have similar structure and function. […] The specific steps were as follows: human Nectin-1, Nectin-2, Nectin-3 and Nectin-4 antigens were diluted to 1 μg/mL with CBS coating solution, coated on an ELISA plate at 100 μL per well, and standed overnight at 4° C.; the liquid in the well was discarded on the next day, and washing was performed once with 300 μL of PBS; 100 μL of PBS (containing 2% BSA) was added, and blocking was performed at 37° C. for 2 hours; 31HZ, 56HZ, 74HZ and Enfortumab antibodies were diluted with PBS (containing 2% BSA), 100 μL was taken and added to the corresponding well, incubated at 37° C. for 2 hours; washing was performed 3 times with 300 μL of PBST; HRP-labeled goat anti-human secondary antibody was diluted at a ratio of 1:10000 with PBS (containing 2% BSA), 100 μL was taken and added to the corresponding well, incubation was performed at 37° C. for 1 hour; washing was performed 5 times with 300 μL of PBST; 100 μL of TMB color development solution was added to the corresponding well, and color development was performed at room temperature for 5-20 minutes; 50 μL of 2N H₂SO₄ was added for stopping, a microplate reader was used for collecting readings at OD450 nm, and the data were imported into Graphpad Prism for curve fitting.

[1] = molecular target: T2, two IgC domains of human Nectin-4 overexpressed on A549 cells (human, UniProt Q96NY8 148-349, limits assumed); assay: flow cytometry on A549-Nectin-4-IgCC cells
T2 construct: domain: two IgC domains; also called A549-Nectin-4-IgCC
T2 sequence (looked up): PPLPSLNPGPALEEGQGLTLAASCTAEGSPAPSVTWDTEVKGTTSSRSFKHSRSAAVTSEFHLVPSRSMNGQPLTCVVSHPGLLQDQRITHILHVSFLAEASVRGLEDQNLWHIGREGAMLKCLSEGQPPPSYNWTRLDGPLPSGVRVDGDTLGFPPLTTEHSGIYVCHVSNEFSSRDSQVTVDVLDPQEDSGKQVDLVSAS
Text: Human Nectin-4 contains one IgV domain and two IgC domains. To determine the binding domain of the anti-human Nectin-4 humanized monoclonal antibodies, an A549 stable cell line A549-Nectin-4-IgV overexpressing Nectin-4 IgV domain, and an A549 stable cell line A549-Nectin-4-IgCC overexpressing two IgC domains of Nectin-4 were constructed, and the binding domains of the antibody to be tested were detected by flow cytometry. The specific steps were as follows: A549-Nectin-4-IgV and A549-Nectin-4-IgCC cells were digested, resuspended by centrifugation, washed twice with PBS; the cells were resuspended with PBS (containing 1% BSA), and spread at 300,000 cells/well into a 96-well tip-bottom plate, 50 μl per well; 50 μL of the antibody to be tested at a final concentration of 40 μg/mL was added to each well, and Human IgG was used as a negative control; after being mixed well, the resulting mixture was reacted in the dark at 4° C. for 1 hour; washing was performed 3 times with PBS, FITC-labeled anti-human Fc secondary antibody (brand: BioLegend, product number: 409322) was added, incubated at 4° C. for 0.5 hours in the dark; washing was performed 3 times with PBS, and detection was carried out using a flow cytometer (flow cytometer brand: Beckman, model: Cytoflex).

[2] = molecular target: T3, human Nectin-4 on cell membrane surface (human, UniProt Q96NY8 32-510); assay: flow cytometry on T47D cells
T3 construct: whole, on cells; also called A549-Nectin-4; T24-Nectin-4
T3 sequence (looked up): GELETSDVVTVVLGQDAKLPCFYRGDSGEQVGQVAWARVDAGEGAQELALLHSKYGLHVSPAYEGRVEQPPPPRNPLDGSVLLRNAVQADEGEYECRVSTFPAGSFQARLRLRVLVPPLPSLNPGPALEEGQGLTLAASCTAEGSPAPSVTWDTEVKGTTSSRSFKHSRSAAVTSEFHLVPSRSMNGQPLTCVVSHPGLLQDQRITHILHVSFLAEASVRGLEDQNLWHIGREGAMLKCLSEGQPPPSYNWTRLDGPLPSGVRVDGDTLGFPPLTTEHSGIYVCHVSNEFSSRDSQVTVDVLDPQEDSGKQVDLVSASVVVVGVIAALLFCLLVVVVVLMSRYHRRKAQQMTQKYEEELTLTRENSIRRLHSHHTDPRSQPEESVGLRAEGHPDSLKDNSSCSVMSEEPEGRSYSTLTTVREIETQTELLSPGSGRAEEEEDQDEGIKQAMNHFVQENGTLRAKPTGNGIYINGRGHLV
Method: The specific steps were as follows: T47D cells were digested, resuspended by centrifugation, and washed twice with PBS; the cells were resuspended in PBS (containing 1% BSA), and spread into a 96-well tip-bottom plate at 3×10⁵ cells/well, with a volume of 50 μl per well; 50 μL of the antibody to be tested was added to each well, starting at a final concentration of […], 4-fold gradient dilution, a total of 10 concentration points; Human IgG was used as a negative control; after being mixed well, the resulting mixture was reacted in the dark at 4° C. for 1 hour; washing was performed 3 times with PBS, FITC-labeled anti-human Fc secondary antibody (brand: BioLegend, product number: 409322) was added, incubated at 4° C. for 0.5 hours in the dark; washing was performed 3 times with PBS, and detection was carried out using a flow cytometer (flow cytometer brand: Beckman, model: Cytoflex).

[3] = molecular target: T3, human Nectin-4 on cell membrane surface; assay: flow cytometry on NCI-N87 cells

B1: anti-human Nectin-4 humanized monoclonal antibody 74HZ (antibody, human IgG1, kappa, V domains shown)
VH: QVQLVQSGAEVKKPGSSVKVSCKASGYTFINYWMNWVRQAPGQGLEWIGMIHPSDSATRLNQSFQGRVTLTVDKSTSTAYMELSSLRSEDTAVYYCARWGNFYTVNAWYYFDYWGQGTLVTVSS
VL: DIVITQSPDSLAVSLGERATINCKSSQTLLNSNTQKNYLAWYQQKPGQSPKLLFYFASTRESGVPDRFSGSGSGTDFTLTISSLQAEDVAVYFCQQHYSTPLTFGQGTKLEIKR
notes: Human IgG1 heavy chain constant region, human kappa light chain constant region; expressed in CHO-E cells
For B1, the binding result (human Nectin-2 antigen) was “no binding (tested: 10000 ng/mL)”, the binding result [1] was “no binding” and the EC50 [2] was 0.0223 µg/mL.

B2: anti-human Nectin-4 humanized monoclonal antibody 31HZ (antibody, human IgG1, kappa, V domains shown)
VH: QVQLVQSGAEVKKPGSSVKVSCKASGYTFTDYWMNWVRLAPGQGLEWIGMIHPSDSETRLNQKFQGRVTLTVDKSTSTAYMELSSLRSEDTAVYYCARWDFRIYYAMDYWGQGTLVTVSS
VL: B1 VL with I2V, T28S, S32T, T34S, F54V, Q106G, L110V
notes: as for B1
For B2, the binding result (human Nectin-2 antigen) was “no binding (tested: 10000 ng/mL)”, the binding result [1] was “no binding” and the EC50 [2] was 0.0123 µg/mL.

B3: anti-human Nectin-4 humanized monoclonal antibody 56HZ (antibody, human IgG1, kappa, V domains shown)
VH: QVQLQESGPGLVKPSQTLSLTCTVSGYFNSITSDYDWHWIRHHPGKGLEWMGYISFSGRTYYNPSLKSRVTISHDTSKNQFSLKLSSVTAADTAVYYCARGNYDGFDYWGQGTLVTVSS
VL: DIVLTQSPATLSLSPGERATLSCRASQNIGTSIHWYQHKPGQSPRLLIKFASESISGIPARFSGSGSGTDFTLTISSLEPEDFAVYYCQQSKSWPTYTFGGGTKVEIKR
notes: as for B1
B3 was tested, and the binding result (human Nectin-2 antigen) was “no binding”, the binding result [1] was “no binding” and the EC50 [3] was 0.0164 µg/mL.

From US20240228612A1 (SICHUAN KELUN BIOTECH BIOPHARMACEUTICAL, published 2024)
